This is an account of results in article PMC5668318.

The test concerns the target 3XFLAG-Kenny LIR motif mutant (F7A/L10A) (Drosophila) (UniProt Q9GYV5). In words: co-IP; anti-FLAG M2-agarose immunoprecipitation from lysates of transfected S2R+ cells, 4 °C overnight, elution with 3XFLAG peptide, blot for GFP.
UniProt Q9GYV5, sequence (Q9GYV5 whole entry F7A/L10A): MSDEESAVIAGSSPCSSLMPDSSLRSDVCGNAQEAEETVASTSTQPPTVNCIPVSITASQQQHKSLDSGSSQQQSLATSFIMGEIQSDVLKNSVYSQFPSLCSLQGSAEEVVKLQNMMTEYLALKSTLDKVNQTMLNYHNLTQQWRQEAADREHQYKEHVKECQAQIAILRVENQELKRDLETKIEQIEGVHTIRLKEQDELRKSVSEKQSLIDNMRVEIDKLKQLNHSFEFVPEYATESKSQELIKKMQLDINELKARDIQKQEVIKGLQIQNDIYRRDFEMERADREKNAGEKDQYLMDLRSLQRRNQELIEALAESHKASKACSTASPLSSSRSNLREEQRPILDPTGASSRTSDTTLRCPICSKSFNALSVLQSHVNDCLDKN

“eGFP-Atg8a (from UniProt Q9W2S2 1-121) (natural protein)”: the percent decrease in the interaction against wild-type 3XFLAG-Kenny is 62%.
